Source: article PMC3988799

T1: Ste2-F204S (S. cerevisiae) (UniProt D6VTK4)
T1 sequence: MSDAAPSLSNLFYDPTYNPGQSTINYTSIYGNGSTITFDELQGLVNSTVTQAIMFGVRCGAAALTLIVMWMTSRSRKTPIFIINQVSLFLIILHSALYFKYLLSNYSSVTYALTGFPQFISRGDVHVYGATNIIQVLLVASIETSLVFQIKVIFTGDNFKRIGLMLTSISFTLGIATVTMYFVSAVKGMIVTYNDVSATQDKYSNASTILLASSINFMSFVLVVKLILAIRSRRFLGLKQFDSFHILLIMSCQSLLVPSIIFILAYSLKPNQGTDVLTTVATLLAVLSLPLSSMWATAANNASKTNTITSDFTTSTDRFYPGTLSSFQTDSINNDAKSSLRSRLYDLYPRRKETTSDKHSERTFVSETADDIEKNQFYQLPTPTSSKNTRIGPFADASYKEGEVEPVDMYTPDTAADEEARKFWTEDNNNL


Legend:
[1] = limited trypsin digestion of plasma membranes ± α-factor, western blot; settings: glycan lost; control: epitope-tagged receptors with intact sites
[2] = molecular target: T1, Ste2-F204S (S. cerevisiae)

| endocytosis complementation assay: percent of co-expressing cells with one or more GFP fluorescent foci after α-factor treatment (fluorescence microscopy) [2] [%] | Binder | structure_or_conformation [1] |
| --- | --- | --- |
| – | α-factor receptor (Ste2): T7-Ste2-N25Q,N32Q (protein) parent chain: MSDAAPSLSNLFYDPTYNPGQSTINYTSIYGNGSTITFDELQGLVNSTVTQAIMFGVRCGAAALTLIVMWMTSRSRKTPIFIINQVSLFLIILHSALYFKYLLSNYSSVTYALTGFPQFISRGDVHVYGATNIIQVLLVASIETSLVFQIKVIFTGDNFKRIGLMLTSISFTLGIATVTMYFVSAVKGMIVTYNDVSATQDKYFNASTILLASSINFMSFVLVVKLILAIRSRRFLGLKQFDSFHILLIMSCQSLLVPSIIFILAYSLKPNQGTDVLTTVATLLAVLSLPLSSMWATAANNASKTNTITSDFTTSTDRFYPGTLSSFQTDSINNDAKSSLRSRLYDLYPRRKETTSDKHSERTFVSETADDIEKNQFYQLPTPTSSKNTRIGPFADASYKEGEVEPVDMYTPDTAADEEARKFWTEDNNNL | no change |
| > 80 | Ste2-T326-GFP (receptor) MSDAAPSLSNLFYDPTYNPGQSTINYTSIYGNGSTITFDELQGLVNSTVTQAIMFGVRCGAAALTLIVMWMTSRSRKTPIFIINQVSLFLIILHSALYFKYLLSNYSSVTYALTGFPQFISRGDVHVYGATNIIQVLLVASIETSLVFQIKVIFTGDNFKRIGLMLTSISFTLGIATVTMYFVSAVKGMIVTYNDVSATQDKYFNASTILLASSINFMSFVLVVKLILAIRSRRFLGLKQFDSFHILLIMSCQSLLVPSIIFILAYSLKPNQGTDVLTTVATLLAVLSLPLSSMWATAANNASKTNTITSDFTTSTDRFYPGTLSS | – |
